Positions count from the first letter of the chain named.
T1: recombinant RSV protein G, G(B): residues 66-292 of strain 18537 (human respiratory syncytial virus …, UniProt P20896 66-292)
T1 construct: also called soluble recombinant G protein; recombinant protein G
T1 sequence: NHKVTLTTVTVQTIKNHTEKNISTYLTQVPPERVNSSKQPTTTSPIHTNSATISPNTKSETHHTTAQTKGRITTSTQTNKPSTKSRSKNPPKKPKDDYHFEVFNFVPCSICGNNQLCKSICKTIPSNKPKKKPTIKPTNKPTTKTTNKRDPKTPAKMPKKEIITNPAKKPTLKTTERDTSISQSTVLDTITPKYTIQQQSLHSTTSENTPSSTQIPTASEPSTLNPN

T2: recombinant human fractalkine (CX3CL1; R&D systems) (human, UniProt P78423 25-100)
T2 sequence (looked up): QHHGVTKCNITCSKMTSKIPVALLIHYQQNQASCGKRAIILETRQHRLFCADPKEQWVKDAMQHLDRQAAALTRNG

B1: Fab fragment of antibody 735 (Fab, V domains shown)
VH: QVQLQESGPGLVKPSETLSLTCTVSNGAIGDYDWSWIRQSPGKGLEWIGNINYRGNTNYNPSLKSRVTMSLRTSTMQFSLKLSSATAADTAVYYCARDVGYGGGQYFAMDVWSPGTTVTVSS
VL: EIVLTQSPATLSLSPGERATLSCRASQSVNSHLAWYQQKPGQAPRLLIYNTFNRVTGIPARFSGSGSGTDFTLTISSLATEDFGVYYCQQRSNWPPALTFGGGTKVEIKR
notes: also called Fab clone 735
B2: Fab fragment of antibody 819 (Fab, V domains shown)
VH: QVQLQESGPGLVKPSQTLSLTCTVSSGAISGADYYWSWIRQPPGKGLEWVGFIYDSGSTYYNPSLRSRVTISIDTSKKQFSLKLTSVTAADTAVYYCARDLGYGGNSYSHSYYYGLDVWGRGTTVTVSS
VL: EIVLTQSPATLSLSPGERATLSCRASQSVSSSLAWYQQTPGQAPRLLIYDASYRVTGIPARFSGSGSGIDFTLTISSLEPEDFAVYYCQQRSNWPPGLTFGGGTKVEIKR
B3: Fab fragment of antibody 796 (Fab)
VH: QVQLVESGGGVVQPGRSLRLSCAASGFSFSHFGMHWVRQVPGKGLEWVAIISYDGNNVHYADSVKGRFTISRDNSKNTLFLQMNSLRDDDTGVYYCAKDDVATDLAAYYYFDVWGRGTLVTVSS
light: DIVMTQTPLSLSVTPGQPASISCRSSQSLLRSDGKTFLYWYLQKPGQSPQPLMYEVSSRFSGVPDRFSGSGSGADFTLNISRVETEDVGIYYCMQGLKIRRTFGPGTKVEIKRTVAAPSVFIFPPSDEQLKSGTASVVCLLNNFYPREAKVQWKVDNALQSGNSQESVTEQDSKDSTYSLSSTLTLSKADYEKHKVYACEVTHQGLSSPVTKSFNRGEC
notes: also called Fab clone 796
B4: Fab fragment of antibody 810 (Fab, V domains shown)
VH: QVQLVQSGAEVKKSGSSVKVSCRASGGTFGNYAINWVRQAPGQGLEWVGRIIPVFDTTNYAQKFQGRVTITADRSTNTAIMQLSSLRPQDTAMYYCLRGSTRGWDTDGFDIWGQGTMVTVSS
VL: NIQMTQSPSAMSASVGDRVTITCRASQGISNYLVWFQQKPGKVPKRLIYAASSLQSGVPSRFSGSGSGTEFTLTISSLQPEDFATYYCLQHNISPYTFGQGTKLETKR
notes: also called Fab clone 810
B5: antibody 841 (clone 841) (antibody, human IgG1, kappa, V domains shown)
VH: QVQLVQSGAEVKKPGASVKVSCKASGYTFISFGISWVRQAPGQGLEWMGWISAYNGNTDYAQRLQDRVTMTRDTATSTAYLELRSLKSDDTAVYYCTRDESMLRGVTEGFGPIDYWGQGTLVTVSS
VL: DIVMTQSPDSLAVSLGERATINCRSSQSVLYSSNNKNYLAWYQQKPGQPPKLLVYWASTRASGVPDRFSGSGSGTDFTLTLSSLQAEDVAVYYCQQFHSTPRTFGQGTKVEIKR
B6: Fab fragment of antibody 811 (Fab)
VH: QVQLVQSGAVVETPGASVKVSCKASGYIFGNYYIHWVRQAPGQGLEWMAVINPNGGSTTSAQKFQDRITVTRDTSTTTVYLEVDNLRSEDTATYYCARQRSVTGGFDAWLLIPDASNTWGQGTMVTVSS
light: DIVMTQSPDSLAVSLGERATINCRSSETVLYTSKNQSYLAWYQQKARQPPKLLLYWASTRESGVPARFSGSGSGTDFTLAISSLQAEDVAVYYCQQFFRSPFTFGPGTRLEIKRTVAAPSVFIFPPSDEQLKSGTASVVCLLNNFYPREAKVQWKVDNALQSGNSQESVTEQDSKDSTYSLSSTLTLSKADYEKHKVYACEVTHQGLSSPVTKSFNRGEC
notes: also called Fab clone 811
B7: Fab fragment of antibody 825 (Fab, V domains shown)
VH: QVQLVQSGAEVKKPGASVKVSCKVSGYTFTSNGLSWVRQAPGQGFEWLGWISASSGNKKYAPKFQGRVTLTTDISTSTAYMELRSLRSDDTAVYYCAKDGGTYVPYSDAFDFWGQGTMVTVSS
VL: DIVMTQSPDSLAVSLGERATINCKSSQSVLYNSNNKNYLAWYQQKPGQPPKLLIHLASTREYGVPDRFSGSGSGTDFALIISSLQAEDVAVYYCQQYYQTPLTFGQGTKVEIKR
B8: antibody 835 (clone 835) (antibody, human IgG1, kappa, V domains shown)
VH: QVQLVQSGAEVKRPGASVKVSCKASGYTFISYGFSWVRQAPGQGLEWMGWSSVYNGDTNYAQKFHGRVNMTTDTSTNTAYMELRGLRSDDTAVYFCARDRNVVLLPAAPFGGMDVWGQGTMVTVSS
VL: DIQLTQSPSFLSASLEDRVTITCRASQGISSYLAWYQQKPGKAPKLLLDAASTLQSGVPSRFSGSGSGTEFTLTISSLQPEDFATYYCQQLNSYPRTFGQGTKVDIKR
B9: Fab fragment of antibody 838 (Fab)
VH: QVQLVESGGGVVQPGTSLRLSCAASGFTFSTFGMHWVRQAPGKGLEWVAVISYDGNKKYYADSVKGRFTISRDNSKNTLYLQVNSLRVEDTAVYYCAAQTPYFNESSGLVPDWGQGTLVTVSS
light: DIQMTQSPSSLSASVGDRVSITCRASQGISNYLAWYQQKPGKVPKLLIYAASTLQSGVPSRFSGSGSGTDFTLTISSLQPEDVATYYCQKYNSAPQTFGQGTKVEIKRTVAAPSVFIFPPSDEQLKSGTASVVCLLNNFYPREAKVQWKVDNALQSGNSQESVTEQDSKDSTYSLSSTLTLSKADYEKHKVYACEVTHQGLSSPVTKSFNRGEC
notes: also called Fab clone 838
B10: Fab fragment of antibody 859 (Fab)
VH: QVQLVESGGGVVQPGRSLRLSCAVSGSSFSKYGIHWVRQAPGKGLEWVAVISYDGSKKYFTDSVKGRFTIARDNSQNTVFLQMNSLRAEDTAVYYCATGGGVNVTSWSDVEHSSSLGYWGLGTLVTVSS
light: B9 light with S20T, S30R, I48V, Y49F, K90R, Q96L, Q100G
notes: also called Fab clone 859
B11: Fab fragment of antibody 858 (Fab, V domains shown)
VH: QVQLVQSGAEVKKPGSSVKVSCKASGGSFDGYTISWLRQAPGQGLEWMGRVVPTLGFPNYAQKFQGRVTVTADRSTNTAYLELSRLTSEDTAVYYCARMNLGSHSGRPGFDMWGQGTLVTVSS
VL: DIQMTQSPSSVSASVGDRVTITCQASQDISNYLNWYQQKPGKAPKLLIFDATKLETGVPTRFIGSGSGTDFTVTITSLQPEDVATYYCQHFANLPYTFGQGTKLEIKR
notes: also called Fab clone 858
B12: Fab fragment of antibody 831 (Fab, V domains shown)
VH: QVQLVQSGAEVKKPGASVKVSCKASANIFTYAMHWVRQAPGQRLEWMGWINVGNGQTKYSQRFQGRVTITRDTSATTAYMELSTLRSEDTAVYYCARRASQYGEVYGNYFDYWGQGTLVTVSS
VL: DIQMTQSPSTLSASVGDRLTITCRASQNIYNWLAWYQQKPGKAPKLLIYDASTLESGVPSRFSGSGSGTEFTLTISSLQPDDFATYYCQQYNSLSPTFGQGTKVEIKR
notes: also called Fab clone 831
B13: Fab fragment of antibody 816 (Fab)
VH: EVQLLESGGGLVQPGGSLRLSCVASGFTFSTYAMTWVRQAPGKGLEWVSVIRASGDSEIYADSVRGRFTISRDNSKNTVFLQMDSLRVEDTAVYFCANIGQRRYCSGDHCYGHFDYWGQGTLVTVSS
light: DIVMTQSPLSLPVTPGEPASISCRSSQSLLHSDGRYYVDWYLQKPGQSPHLLIYLASNRASGVPDRFTGSGSGTDFTLKISRVEAEDVGVYYCMQGLHTPWTFGQGTKVDIKRTVAAPSVFIFPPSDEQLKSGTASVVCLLNNFYPREAKVQWKVDNALQSGNSQESVTEQDSKDSTYSLSSTLTLSKADYEKHKVYACEVTHQGLSSPVTKSFNRGEC
B14: antibody 816 (clone 816) (antibody, human IgG1, kappa, V domains shown)
VH: B13 VH
VL: DIVMTQSPLSLPVTPGEPASISCRSSQSLLHSDGRYYVDWYLQKPGQSPHLLIYLASNRASGVPDRFTGSGSGTDFTLKISRVEAEDVGVYYCMQGLHTPWTFGQGTKVDIKR
B15: Fab fragment of antibody 817 (Fab, V domains shown)
VH: QVQLVESGGGVVQPGRSLRLSCAASGFGFNTHGMHWVRQAPGKGLEWLSIISLDGIKTHYADSVKGRFTISRDNSKNTVFLQLSGLRPEDTAVYYCAKDHIGGTNAYFEWTVPFDGWGQGTLVTVSS
VL: EIVMTQSPATLSASPGERATLSCWASQTIGGNLAWYQQKPGQAPRLLIYGASTRATGVPARFSGSGSGTEFTLAISSLQSEDFAVYYCQQYKNWYTFGQGTKLELKR
notes: also called Fab clone 817
B16: Fab fragment of antibody 818 (Fab, V domains shown)
VH: QVTLRESGPAVVKPTETLTLTCAFSGFSLNAGRVGVSWIRQPPGQAPEWLARIDWDDDKAFRTSLKTRLSISKDSSKNQVVLTLSNMDPADTATYYCARTQVFASGGYYLYYLDHWGQGTLVTVSS
VL: DIQMTQSPSSLSASVGDRVTITCRASQTIASYVNWYQQKPGRAPSLLIYAASNLQSGVPPRFSGSGSGTDFTLTISGLQPDDFATYYCQQSYSYRALTFGGGTKVEIKR
B17: Fab fragment of antibody 853 (Fab)
VH: EVQLVQSGAEVKKPGQSLKISCKTSGYIFTNYWIGWVRQRPGKGLEWMGVIFPADSDARYSPSFQGQVTISADKSIGTAYLQWSSLKASDTAIYYCARPKYYFDSSGQFSEMYYFDFWGQGTLVTVSS
light: EIVLTQSPGTLSLSPGERATLSCRASQSVSSNYLAWYQQKPGQAPRLLIYGASSRAAGMPDRFSGSGSGTDFTLTISRLEPEDFAVYYCQQYGNSPLTFGGGTEVEIKRTVAAPSVFIFPPSDEQLKSGTASVVCLLNNFYPREAKVQWKVDNALQSGNSQESVTEQDSKDSTYSLSSTLTLSKADYEKHKVYACEVTHQGLSSPVTKSFNRGEC
notes: also called Fab clone 853

Key:
[1] = target: RSV protein F (recombinant or purified F protein) (human respiratory syncytial virus, …); assay: SPR Biacore 3000, Fab over amine-coupled recombinant protein F
[2] = target: T1, recombinant RSV protein G, G(B): …; assay: SPR Biacore 3000, Fab over amine-coupled recombinant protein G
[3] = target: T2, recombinant human fractalkine (CX3CL1; …); assay: ELISA on recombinant human fractalkine

Row | Binder | Kd [1] [nM] | koff [1] [s⁻¹] | kon [1] [M⁻¹ s⁻¹] | t1/2 [1] [h] | Kd [2] [nM] | koff [2] [s⁻¹] | kon [2] [M⁻¹ s⁻¹] | t1/2 [2] [h] | binding result [3]
1 | B1 | 0.226 | 9.18e-05 | 407000 | 2.17 | – | – | – | – | –
2 | B2 | 0.14 | 4.99e-05 | 356000 | 3.83 | – | – | – | – | –
3 | B3 | – | – | – | – | 0.48 | 0.000403 | 833000 | 0.478 | –
4 | B4 | 0.2 | 0.000348 | 1.74e+06 | 0.55 | – | – | – | – | –
5 | B5 | – | – | – | – | – | – | – | – | no binding
6 | B6 | – | – | – | – | 0.34 | 0.000171 | 498000 | 1.13 | –
7 | B7 | 0.195 | 0.00015 | 772000 | 1.28 | – | – | – | – | –
8 | B8 | – | – | – | – | – | – | – | – | no binding
9 | B9 | – | – | – | – | 0.19 | 5.06e-05 | 264000 | 3.83 | –
10 | B10 | – | – | – | – | 0.12 | 4.63e-05 | 380000 | 4.17 | –
11 | B11 | 0.007 | 3.4e-06 | 497000 | 56.7 | – | – | – | – | –
12 | B12 | 1.13 | 0.00042 | 372000 | 0.467 | – | – | – | – | –
13 | B13 | – | – | – | – | 0.09 | 0.000178 | 2.02e+06 | 1.08 | –
14 | B14 | – | – | – | – | – | – | – | – | no binding
15 | B15 | 0.82 | 7.54e-05 | 92000 | 2.5 | – | – | – | – | –
16 | B16 | 0.115 | 2.2e-05 | 192000 | 8.83 | – | – | – | – | –
17 | B17 | – | – | – | – | 0.79 | 0.0014 | 1.77e+06 | 0.138 | –

Source: patent US20080226630A1 (SYMPHOGEN A S, published 2008)
